Article PMC9482650, “Quantitative fragmentomics allow affinity mapping of interactomes” (Nature Communications, 2022)

How the values were obtained:
Assay in all cases: holdup assay
Design in all cases: key: below the threshold = too weak to quantify, mostly under pKd 3.1 to 4
Conditions in all cases: plain residues with an end cap or a label only (N-terminal biotin on a linker: ttds)
DLG4_2, P78352 = molecular target: DLG4_2, P78352
SNTA1, Q13424 = molecular target: T1, SNTA1, Q13424
T1 sequence (Q13424 82-180, limits assumed, looked up): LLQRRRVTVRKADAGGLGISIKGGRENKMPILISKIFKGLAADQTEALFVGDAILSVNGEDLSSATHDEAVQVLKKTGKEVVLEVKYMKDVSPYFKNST

MAGI2_6, Q86UL8 = molecular target: MAGI2_6, Q86UL8
Chain of MAGI2_6, Q86UL8 (Q86UL8 1141-1229): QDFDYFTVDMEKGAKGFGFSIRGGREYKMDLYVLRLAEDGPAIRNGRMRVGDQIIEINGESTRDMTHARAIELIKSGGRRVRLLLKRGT

FRMPD2_3, Q68DX3 = molecular target: FRMPD2_3, Q68DX3
Chain of FRMPD2_3, Q68DX3 (Q68DX3 1073-1166): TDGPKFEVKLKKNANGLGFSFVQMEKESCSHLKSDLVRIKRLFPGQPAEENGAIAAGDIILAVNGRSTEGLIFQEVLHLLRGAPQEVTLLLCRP

MPP6, Q9NZW5 = molecular target: T2, MPP6, Q9NZW5
T2 sequence (Q9NZW5 125-219, limits assumed, looked up): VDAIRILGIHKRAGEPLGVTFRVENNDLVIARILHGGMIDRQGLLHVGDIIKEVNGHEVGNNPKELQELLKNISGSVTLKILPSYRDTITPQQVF

ARHGEF12, Q9NZN5-2 = molecular target: ARHGEF12, Q9NZN5-2
Chain of ARHGEF12, Q9NZN5-2 (Q9NZN5 other isoform, or with tags, fused parts or gaps): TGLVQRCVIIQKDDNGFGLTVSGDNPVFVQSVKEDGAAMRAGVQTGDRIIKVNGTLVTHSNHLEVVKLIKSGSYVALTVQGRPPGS

APBA2_2, Q99767 = molecular target: T3, APBA2_2, Q99767
T3 sequence (Q99767 654-744, limits assumed, looked up): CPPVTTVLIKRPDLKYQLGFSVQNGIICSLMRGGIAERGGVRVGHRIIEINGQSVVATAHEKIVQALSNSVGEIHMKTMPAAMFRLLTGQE

LIN7C, Q9NUP9 = molecular target: T4, LIN7C, Q9NUP9
T4 sequence (Q9NUP9 88-185, limits assumed, looked up): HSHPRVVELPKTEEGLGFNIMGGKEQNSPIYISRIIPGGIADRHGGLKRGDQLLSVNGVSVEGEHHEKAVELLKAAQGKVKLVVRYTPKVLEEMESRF

Inadl_5, Q8NI35 = molecular target: Inadl_5, Q8NI35
Chain of Inadl_5, Q8NI35 (Q8NI35 673-780): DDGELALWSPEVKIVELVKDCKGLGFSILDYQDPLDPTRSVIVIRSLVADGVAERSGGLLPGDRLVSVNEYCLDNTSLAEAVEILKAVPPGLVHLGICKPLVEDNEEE

GRIP1_4, Q9Y3R0 = molecular target: T5, GRIP1_4, Q9Y3R0
T5 sequence (Q9Y3R0 467-571, limits assumed, looked up): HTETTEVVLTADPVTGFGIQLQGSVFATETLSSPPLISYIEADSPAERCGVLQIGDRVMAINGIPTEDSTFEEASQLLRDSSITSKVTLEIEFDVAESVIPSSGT

DLG1_3, Q12959 = molecular target: DLG1_3, Q12959
Chain of DLG1_3, Q12959 (Q12959 457-571): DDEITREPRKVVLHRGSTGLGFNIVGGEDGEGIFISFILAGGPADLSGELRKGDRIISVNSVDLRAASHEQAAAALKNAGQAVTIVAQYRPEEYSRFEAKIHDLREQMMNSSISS

TJP1_2, Q07157 = molecular target: TJP1_2, Q07157
Chain of TJP1_2, Q07157 (Q07157 181-274): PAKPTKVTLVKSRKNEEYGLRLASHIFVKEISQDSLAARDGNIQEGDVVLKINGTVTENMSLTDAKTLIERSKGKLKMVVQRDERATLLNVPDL

GRIP2_7, Q9C0E4 = molecular target: GRIP2_7, Q9C0E4
Chain of GRIP2_7, Q9C0E4 (Q9C0E4 934-1023): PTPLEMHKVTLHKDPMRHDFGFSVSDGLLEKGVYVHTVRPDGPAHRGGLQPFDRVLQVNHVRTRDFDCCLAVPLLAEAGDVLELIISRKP

LNX1_1, Q8TBB1 = molecular target: LNX1_1, Q8TBB1
Chain of LNX1_1, Q8TBB1 (Q8TBB1 261-371): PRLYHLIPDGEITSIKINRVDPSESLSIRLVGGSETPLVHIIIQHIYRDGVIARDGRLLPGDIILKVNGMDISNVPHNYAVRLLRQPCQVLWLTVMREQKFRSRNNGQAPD

GRIP2_3, Q9C0E4 = molecular target: GRIP2_3, Q9C0E4
Chain of GRIP2_3, Q9C0E4 (Q9C0E4 238-339): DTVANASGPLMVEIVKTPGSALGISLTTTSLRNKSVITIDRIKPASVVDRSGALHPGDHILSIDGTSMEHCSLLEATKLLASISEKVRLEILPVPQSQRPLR

TJP2_1, Q9UDY2 = molecular target: TJP2_1, Q9UDY2
Chain of TJP2_1, Q9UDY2 (Q9UDY2 24-128): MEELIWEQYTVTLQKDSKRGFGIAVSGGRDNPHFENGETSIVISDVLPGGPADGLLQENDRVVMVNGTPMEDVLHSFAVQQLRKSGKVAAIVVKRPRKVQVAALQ

GRIP2_5, Q9C0E4 = molecular target: GRIP2_5, Q9C0E4
Chain of GRIP2_5, Q9C0E4 (Q9C0E4 544-642): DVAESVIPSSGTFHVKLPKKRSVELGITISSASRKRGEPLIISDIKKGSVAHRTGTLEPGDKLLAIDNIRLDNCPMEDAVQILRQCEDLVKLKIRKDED

HTRA1, Q92743 = molecular target: HTRA1, Q92743
Chain of HTRA1, Q92743 (Q92743 360-477): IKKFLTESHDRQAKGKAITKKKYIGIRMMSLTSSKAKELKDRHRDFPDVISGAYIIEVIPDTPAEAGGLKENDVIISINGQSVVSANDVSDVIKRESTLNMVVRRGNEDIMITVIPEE

SNTB1, Q13884 = molecular target: T6, SNTB1, Q13884
T6 sequence (Q13884 107-205, limits assumed, looked up): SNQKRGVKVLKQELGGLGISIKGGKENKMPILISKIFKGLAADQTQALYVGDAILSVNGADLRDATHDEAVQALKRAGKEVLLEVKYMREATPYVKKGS

LNX2_2, Q8N448 = molecular target: T7, LNX2_2, Q8N448
T7 sequence (Q8N448 334-432, limits assumed, looked up): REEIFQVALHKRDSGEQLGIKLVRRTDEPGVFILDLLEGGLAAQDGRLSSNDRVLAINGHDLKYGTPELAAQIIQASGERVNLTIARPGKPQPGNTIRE

GORASP1, Q9BQQ3 = molecular target: GORASP1, Q9BQQ3
Chain of GORASP1, Q9BQQ3 (Q9BQQ3 1-208): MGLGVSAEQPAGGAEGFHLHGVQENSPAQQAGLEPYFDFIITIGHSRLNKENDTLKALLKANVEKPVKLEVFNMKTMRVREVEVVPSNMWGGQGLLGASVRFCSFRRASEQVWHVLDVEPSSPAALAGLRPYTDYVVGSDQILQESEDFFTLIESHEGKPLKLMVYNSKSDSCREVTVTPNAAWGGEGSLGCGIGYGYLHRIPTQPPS

GIPC2, Q8TF65 = molecular target: GIPC2, Q8TF65
Chain of GIPC2, Q8TF65 (Q8TF65 112-203): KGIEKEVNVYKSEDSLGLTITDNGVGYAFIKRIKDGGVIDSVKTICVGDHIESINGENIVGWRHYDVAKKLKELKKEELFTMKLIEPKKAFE

NHERF3_4, Q5T2W1 = molecular target: T8, NHERF3_4, Q5T2W1
T8 sequence (Q5T2W1 373-468, limits assumed, looked up): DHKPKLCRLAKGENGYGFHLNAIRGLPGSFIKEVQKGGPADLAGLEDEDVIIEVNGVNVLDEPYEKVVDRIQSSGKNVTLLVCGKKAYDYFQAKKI

PDZRN3_1, Q9UPQ7 = molecular target: T9, PDZRN3_1, Q9UPQ7
T9 sequence (Q9UPQ7 244-349, limits assumed, looked up): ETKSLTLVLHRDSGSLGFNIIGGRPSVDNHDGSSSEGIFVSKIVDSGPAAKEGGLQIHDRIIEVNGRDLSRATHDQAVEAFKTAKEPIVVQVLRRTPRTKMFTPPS

DLG5_1, Q8TDM6 = molecular target: DLG5_1, Q8TDM6
Chain of DLG5_1, Q8TDM6 (Q8TDM6 617-713): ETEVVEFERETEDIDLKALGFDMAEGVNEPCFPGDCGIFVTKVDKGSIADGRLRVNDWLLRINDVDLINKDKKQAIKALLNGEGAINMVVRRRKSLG

Inadl_9, Q8NI35 = molecular target: Inadl_9, Q8NI35
Chain of Inadl_9, Q8NI35 (Q8NI35 1530-1615): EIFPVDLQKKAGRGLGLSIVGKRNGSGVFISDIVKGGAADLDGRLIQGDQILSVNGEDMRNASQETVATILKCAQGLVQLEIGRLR

LNX2_3, Q8N448 = molecular target: T10, LNX2_3, Q8N448
T10 sequence (Q8N448 463-564, limits assumed, looked up): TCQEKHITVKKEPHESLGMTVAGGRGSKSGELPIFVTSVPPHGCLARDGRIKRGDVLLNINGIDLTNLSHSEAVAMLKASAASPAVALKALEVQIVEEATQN

Chain of DLG4_2, P78352 (P78352 155-259): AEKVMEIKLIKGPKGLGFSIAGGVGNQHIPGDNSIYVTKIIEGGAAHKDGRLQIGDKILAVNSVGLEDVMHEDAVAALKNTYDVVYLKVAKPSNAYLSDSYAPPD

B1: ABCC4, O15439 (peptide)
chain: STLTIFETAL
**Q.** Which results are given for B1?
**A.** pKd (DLG4_2, P78352): 4.23; pKd (SNTA1, Q13424): 4.75; pKd (MAGI2_6, Q86UL8): 4.53; pKd (FRMPD2_3, Q68DX3): below the threshold; pKd (MPP6, Q9NZW5): below the threshold; pKd (ARHGEF12, Q9NZN5-2): 5.21; pKd (APBA2_2, Q99767): below the threshold; pKd (LIN7C, Q9NUP9): 4.68; pKd (Inadl_5, Q8NI35): below the threshold; pKd (GRIP1_4, Q9Y3R0): below the threshold; pKd (DLG1_3, Q12959): 4.38; pKd (TJP1_2, Q07157): below the threshold; pKd (GRIP2_7, Q9C0E4): below the threshold; pKd (LNX1_1, Q8TBB1): 3.59; pKd (GRIP2_3, Q9C0E4): below the threshold; pKd (TJP2_1, Q9UDY2): below the threshold; pKd (GRIP2_5, Q9C0E4): below the threshold; pKd (HTRA1, Q92743): below the threshold; pKd (SNTB1, Q13884): 5.05; pKd (LNX2_2, Q8N448): below the threshold; pKd (GORASP1, Q9BQQ3): below the threshold; pKd (GIPC2, Q8TF65): below the threshold; pKd (NHERF3_4, Q5T2W1): 4.78; pKd (PDZRN3_1, Q9UPQ7): 5.46; pKd (DLG5_1, Q8TDM6): below the threshold; pKd (Inadl_9, Q8NI35): below the threshold; pKd (LNX2_3, Q8N448): below the threshold
